Here are results for nine proteins from US20260234592.

Data set [1] has as its target CBD-TEVrs-bglA (N-terminal His-tagged chitin binding domain, TEVrs ENLYFQG, 6-phospho-β-glucosidase A).
Data set [2] deals with MBP5-TEV-paramyosin ΔSal (maltose binding protein domain and a paramyosin fragment linked by a TEV protease recognition sequence).

“Also recorded” adds a separate entry of the source.

B1: R49V variant TEV protease (N-terminal His tag; R49V, L56V, S135G, S219V) (protein)
chain: GHHHHHHHGESLFKGPRDYNPISSTICHLTNESDGHTTSLYGIGFGPFIITNKHLFVRNNGTLVVQSLHGVFKVKNTTTLQQHLIDGRDMIIIRMPKDFPPFPQKLKFREPQREERICLVTTNFQTKSMSSMVSDTSCTFPSGDGIFWKHWIQTKDGQCGSPLVSTRDGFIVGIHSASNFTNTNNYFTSVPKNFMELLTNQEAQQWVSGWRLNADSVLWGGHKVFMVKPEEPFQPVKEATQLMNE
As for B1, in data set [1], the “CBD-TEVrs-bglA cleavage over time at 30° C. and 20° C.” value is given as “showed slightly weaker activity than control TEV protease”; the Ratio kR49V/kcontrol = (kcat/KM)R49V/(kcat/KM)control was determined as 2; the “Slope of ln(1-(cleavage ratio)) against the concentration of TEV protease, 4° C., 18 hours” value (from here on “Slope of ln(1-(cleavage ratio))”) was “y = -11.281x - 0.2037”.

B2: L76P variant TEV protease (N-terminal His tag; L56V, L76P, S135G, S219V) (protein)
chain: GHHHHHHHGESLFKGPRDYNPISSTICHLTNESDGHTTSLYGIGFGPFIITNKHLFRRNNGTLVVQSLHGVFKVKNTTTLQQHPIDGRDMIIIRMPKDFPPFPQKLKFREPQREERICLVTTNFQTKSMSSMVSDTSCTFPSGDGIFWKHWIQTKDGQCGSPLVSTRDGFIVGIHSASNFTNTNNYFTSVPKNFMELLTNQEAQQWVSGWRLNADSVLWGGHKVFMVKPEEPFQPVKEATQLMNE
In the case of B2, in data set [1], the “CBD-TEVrs-bglA cleavage over time at 30° C. and 20° C.” value is “At both temperatures, the L76P variant showed higher activity than control TEV protease”; the Ratio kL76P/kcontrol = (kcat/KM)L76P/(kcat/KM)control stood at 1.7; the “Slope of ln(1-(cleavage ratio))” value was “y = -13.611x - 0.0596”; the “substrate cleaved, 0° C., 18 hours” value is recorded as “the L76P variant cleaved 75% of the substrate”. Besides, the “substrate cleaved, 4° C., 18 hours” value in data set [1] is recorded as “the L76P variant cleaved 87% of the substrate”.

B3: R49V_L76P variant TEV protease (N-terminal His tag; R49V, L56V, L76P, S135G, S219V) (protein)
chain: GHHHHHHHGESLFKGPRDYNPISSTICHLTNESDGHTTSLYGIGFGPFIITNKHLFVRNNGTLVVQSLHGVFKVKNTTTLQQHPIDGRDMIIIRMPKDFPPFPQKLKFREPQREERICLVTTNFQTKSMSSMVSDTSCTFPSGDGIFWKHWIQTKDGQCGSPLVSTRDGFIVGIHSASNFTNTNNYFTSVPKNFMELLTNQEAQQWVSGWRLNADSVLWGGHKVFMVKPEEPFQPVKEATQLMNE
With B3, in data set [1], the “CBD-TEVrs-bglA cleavage over time at 30° C.” value is on record as “all variants performed better that the control”; the “CBD-TEVrs-bglA cleavage over time at 30° C. and 20° C.” value is on record as “the R49V_L76P variant showed higher activity than L76P variant”; the Ratio kR49V-L76P/kcontrol = (kcat/KM)R49V-L76P/(kcat/KM)control was 1.5; the “Slope of ln(1-(cleavage ratio))” value is given as “y = -11.117x - 0.0916”. For the same protein, in data set [1], the “protease concentration that reaches almost 100% cleavage, 4° C., 18 hours” value was “the R49V_L76P variant reached almost 100% cleavage at 0.5 µM” and the “substrate cleaved, 4° C., 18 hours” value is on record as “R49V_L76P variant cleaved the substrate by 94%”.

B4: R49F_L76P variant TEV protease (N-terminal His tag; R49F, L56V, L76P, S135G, S219V) (protein)
chain: GHHHHHHHGESLFKGPRDYNPISSTICHLTNESDGHTTSLYGIGFGPFIITNKHLFFRNNGTLVVQSLHGVFKVKNTTTLQQHPIDGRDMIIIRMPKDFPPFPQKLKFREPQREERICLVTTNFQTKSMSSMVSDTSCTFPSGDGIFWKHWIQTKDGQCGSPLVSTRDGFIVGIHSASNFTNTNNYFTSVPKNFMELLTNQEAQQWVSGWRLNADSVLWGGHKVFMVKPEEPFQPVKEATQLMNE
As to B4, in data set [2], the “cleavage of the substrate, 4° C., 1 hour” value was “The variant protease achieved 85% cleavage in just 1 hour at 4 °C”; the “cleavage of the substrate, 4° C., 3 hours” value is on record as “The variant TEV protease cleaved 98% of the substrate in 3 hours”; the “cleavage of the substrate, 4° C., 5 hours” value is recorded as 99% in 5 hours. Further, in data set [1], the “CBD-TEVrs-bglA cleavage over time at 30° C.” value was “all variants performed better that the control with the R49F_L76P variant (SEQ ID NO: 11) displaying the highest activity”; the Ratio kR49F-L76P/kcontrol = (kcat/KM)R49F-L76P/(kcat/KM)control is 2.6; the “Slope of ln(1-(cleavage ratio))” value is recorded as “y = -13.518x - 0.0413”; the “protease concentration that reaches almost 100% cleavage, 4° C., 18 hours” value is reported as “the R49F_L76P variant reached almost 100% cleavage at 0.5 µM”. Further, in data set [1], the “substrate cleaved, 0° C., 18 hours” value was “the R49F_L76P variant cleaved 86% of the substrate” and the “substrate cleaved, 4° C., 18 hours” value is recorded as “the R49F_L76P variant cleaved 97% of the substrate”.

B5: control TEV protease (TEV protease triple variant L56V, S135G, S219V with N-terminal His tag) (protein)
chain: GHHHHHHHGESLFKGPRDYNPISSTICHLTNESDGHTTSLYGIGFGPFIITNKHLFRRNNGTLVVQSLHGVFKVKNTTTLQQHLIDGRDMIIIRMPKDFPPFPQKLKFREPQREERICLVTTNFQTKSMSSMVSDTSCTFPSGDGIFWKHWIQTKDGQCGSPLVSTRDGFIVGIHSASNFTNTNNYFTSVPKNFMELLTNQEAQQWVSGWRLNADSVLWGGHKVFMVKPEEPFQPVKEATQLMNE
In the case of B5, in data set [1], the “protease concentration that reaches almost 100% cleavage, 4° C., 18 hours” value is recorded as 2 µM of the control TEV protease was needed to reach the same mark; the “substrate cleaved, 0° C., 18 hours” value is given as “the control TEV protease cleaved 64% of the substrate”; the “substrate cleaved, 4° C., 18 hours” value is reported as “Control TEV protease cleaved the substrate by 73%; also recorded: the control TEV protease cleaved 77% of the substrate”.

B6: R49A_L76P variant TEV protease (triple variant further comprising R49A and L76P), expressed in vivo (protein)
chain: GESLFKGPRDYNPISSTICHLTNESDGHTTSLYGIGFGPFIITNKHLFARNNGTLVVQSLHGVFKVKNTTTLQQHPIDGRDMIIIRMPKDFPPFPQKLKFREPQREERICLVTTNFQTKSMSSMVSDTSCTFPSGDGIFWKHWIQTKDGQCGSPLVSTRDGFIVGIHSASNFTNTNNYFTSVPKNFMELLTNQEAQQWVSGWRLNADSVLWGGHKVFMVKPEEPFQPVKEATQLMNE
As to B6, the “CBD-TEVrs-bglA cleavage over time at 30° C.” value in data set [1] is on record as “all variants performed better that the control”.

B7: R49G_L76P variant TEV protease (triple variant further comprising R49G and L76P), expressed in vivo (protein)
chain: GESLFKGPRDYNPISSTICHLTNESDGHTTSLYGIGFGPFIITNKHLFGRNNGTLVVQSLHGVFKVKNTTTLQQHPIDGRDMIIIRMPKDFPPFPQKLKFREPQREERICLVTTNFQTKSMSSMVSDTSCTFPSGDGIFWKHWIQTKDGQCGSPLVSTRDGFIVGIHSASNFTNTNNYFTSVPKNFMELLTNQEAQQWVSGWRLNADSVLWGGHKVFMVKPEEPFQPVKEATQLMNE
Consider B7, for which the “CBD-TEVrs-bglA cleavage over time at 30° C.” value in data set [1] is “all variants performed better that the control”.

B8: R49I_L76P variant TEV protease (triple variant further comprising R49I and L76P), expressed in vivo (protein)
chain: GESLFKGPRDYNPISSTICHLTNESDGHTTSLYGIGFGPFIITNKHLFIRNNGTLVVQSLHGVFKVKNTTTLQQHPIDGRDMIIIRMPKDFPPFPQKLKFREPQREERICLVTTNFQTKSMSSMVSDTSCTFPSGDGIFWKHWIQTKDGQCGSPLVSTRDGFIVGIHSASNFTNTNNYFTSVPKNFMELLTNQEAQQWVSGWRLNADSVLWGGHKVFMVKPEEPFQPVKEATQLMNE
On to B8, for which, in data set [1], the “CBD-TEVrs-bglA cleavage over time at 30° C.” value is recorded as “all variants performed better that the control”.

B9: R49L_L76P variant TEV protease (triple variant further comprising R49L and L76P), expressed in vivo (protein)
chain: GESLFKGPRDYNPISSTICHLTNESDGHTTSLYGIGFGPFIITNKHLFLRNNGTLVVQSLHGVFKVKNTTTLQQHPIDGRDMIIIRMPKDFPPFPQKLKFREPQREERICLVTTNFQTKSMSSMVSDTSCTFPSGDGIFWKHWIQTKDGQCGSPLVSTRDGFIVGIHSASNFTNTNNYFTSVPKNFMELLTNQEAQQWVSGWRLNADSVLWGGHKVFMVKPEEPFQPVKEATQLMNE
With B9, the “CBD-TEVrs-bglA cleavage over time at 30° C.” value in data set [1] is listed as “all variants performed better that the control”.
